Laboratory results: patent publication US20210324011A1 (University of Washington, published 2021)

Target: the molecule itself
Assay: negative stain EM; 1 = filaments observed (self-assembly)
From the text: The designs were expressed in Escherichia coli under the control of a T7 promoter and purified using immobilized metal affinity chromatography (IMAC). […] IMAC eluates were concentrated, and filament formation was monitored by negative stain electron microscopy (EM); insoluble designs were characterized by EM either directly in the initial insoluble fraction, or after solubilization in guanidine hydrochloride, IMAC, and subsequent removal of denaturant.
Negative Stain Electron Microscopy. Soluble fractions were concentrated and insoluble fractions were resuspended in buffer (25 mM Tris, 75 mM NaCl, pH 8) for EM screening. A drop of 6 μL (1 μl sample instantly diluted with 5 μl of buffer) was applied on negatively glow discharged, carbon-coated 200-mesh copper grids (Ted Pella, Inc.), washed with Milli-Q™ Water and stained using 0.75% uranyl formate as described previously (28). The screening was performed on either a 120 kV Tecnai Spirit™ T12 transmission electron microscope (FEI, Hillsboro, Oreg.) or a 100 kV Morgagni M268 transmission electron microscope (FEI, Hillsboro, Oreg.). Images were recorded on a bottom mount Teitz CMOS™ 4 k camera system. The contrast of the images was enhanced in the Fiji software (29) for clarity.

Protein	binding result
DHF77 (designed binder, vector pET28b; forms a homo-polymer) MGDSMKLVMLLLKKAVTLAKLNNDDMVALEIERAAKQIVLALAVNKSDEMAKVMLALAKAVLLAAKNNDDEVAREIARAAAEIVEALKENNSDEMAKVMLALAKAVLLAAKNNDDEVAREIARAAAEIVEALRENNSDEMAKKMLELAKRVLDAAKNNDDETAREIARQAAEEVEADRENLE	binds
DHF5 (designed binder, vector pCDB24 (SUMO fusion); forms a homo-polymer) ALDLLARVIVLVMEAVKLLVLAVIMGLEMILRVALRLAEEAARAAKAVLLLAEVEGDPEVALKAVELVVRVAELLLRIAKESGSEEALERALRVAEEAARLAKRVLELAEKQGDPEVALRAVELVVRVAELLLRIAKESGSEEALERALRVAEEAARLAKRVLELAEKQGDPEVARRAVELVKRVAELLERIARESGSEEAKERAERVREEARELQERVKELREREG	binds
DHF52 (designed binder, vector pCDB24 (SUMO fusion); forms a homo-polymer) SLKELLELERVAVEAIVAAAEGNTMEVIEQLQRAMLIAVLSGTTSAVKLALEVVARVAIEAARIGNTDAVRIALSVALTIAVISGTTEAVKLALEVVARVAIEAARRGNTDAVREALEVALEIARESGTEEAVRLALEVVKRVSDEAKKQGNEDAVKEAEEVRKKIEEESG	binds
DHF48 (designed binder, vector pET28b; forms a homo-polymer) MAVEEAIRVMRLVREAEQVLLQAKMMGSERVLEMALRTAEEAAREAKLVLAVAELEGDPVVALIAVELVVRVAELLLRIAKESGSEEALERALRVAEEAARLAKRVLELAEKQGDPEVALRAVELVVRVAELLLRIAKESGSEEALERALRVAEEAARLAKRVLELAEKQGDPEVARRAVELVKRVAELLERIARESGSEEAKERAERVREEARELQERVKELREREGLE	binds
DHF8 (designed binder, vector pET28b; forms a homo-polymer) MGLELSLVINLVLLANLLHLQAMMKGSSEDLEKALRTAEEAAREAKKVLEQAEKNGDPEVALRAVELVVIVAITLLLIAISSGSEEALERALRVAEEAARLAKRVLELAEKAGDPEVALRAVELVVRVAELLLRIAKESGSEEALERALRVAEEAARLAKRVLELAEKQGDPEVARRAVELVKRVAELLERIARESGSEEAKERAERVREEARELQERVKELREREGLE	binds
DHF51 (designed binder, vector pCDB24 (SUMO fusion); forms a homo-polymer) AVDQMIRVIVLVKEAEEALLNAKLLGSEMALTLALRTAEEAARVAKTVLELAEKDGDPVVALLAVELVVRVAELLLRIAKESGSEEALERALRVAEEAARLAKRVLELAEKQGDPEVALRAVELVVRVAELLLRIAKESGSEEALERALRVAEEAARLAKRVLELAEKQGDPEVARRAVELVKRVAELLERIARESGSEEAKERAERVREEARELQERVKELREREG	binds
DHF62 (designed binder, vector pET28b; forms a homo-polymer) MGIVLVIESLEAEVRLEKAKVLSVLARVRGDLKELAEALIEEARAVQELARVACEKGNSEEAERASEKAQRVLEEARKVSEEAREQGDDEVLALALIAIALAVLALAEVACCRGNSEEAERASEKAQRVLEEARKVSEEAREQGDDEVLALALIAIALAVLALAEVACCRGNKEEAERAYEDARRVEEEARKVKESAEEQGDSEVKRLAEEAEQLAREARRHVQECRGLE	binds
DHF36 (designed binder, vector pET28b; forms a homo-polymer) MVEKNMLRLRLVKIVVENAKTKGDDTEEAREAAREAFEKVRVAAEVAGIDSSEVLELAIRLIKEVVLLALLEGYDISEAARAAAEAFVRVAVAAKIAGITSSEVLELAIRLIKEVVMNAMMEGYDISEAARAAAEAFKLVAEAAKRAGITSSETLKRAIEEIRKRVEEAQREGNNISVAALEAADEFRKKAEELKRRGLE	binds
DHF46 (designed binder, vector pET28b; forms a homo-polymer; cryoEM PDB 6E9R) MGHHHHHHSSGTKEERVLLMKVAILAIVAAKKGNTDEVRKALELALLIAKVSGTTEAVKLALEVVARVAIEAARRGNTDAVREALEVALEIARESGTTEAVKLALEVVARVAIEAARRGNTEAVVEALLVALEIAKESGTEEAVRLALEVVKRVSNEALKQGNVDAVKVALEVRKMIEELSG	binds
DHF76 (designed binder, vector pET28b; forms a homo-polymer) MGLEKEVLRVKLVKICVLLARLKGDDTEEAREAARQAFEVVRLAAELAGIDSSEVLELAIRLIKECVENAQREGYDISLACMLAALAFKRVAEAAKRAGITSSEVLELAIRLIKECVENAQRDGYDISEACRAAAEAFKRVAEAAKRAGITSSETLKRAIEEIRKRVEEAQREGNEISEACRQAAEEFRKKAEELKRLE	binds
DHF40 (designed binder, vector pCDB24 (SUMO fusion); forms a homo-polymer) SSEKEELRERLVKICVELAKLKGDDTLKAAEAAEEAFRLVVLAAMLAGIDSSEVLELAIRLIKTCVVLAAMEGYDISEACRAAAEAFTRVAMAALRAGITSSLVLKAAIELIKECVLNAAVEGYDISEACRAAAEAFKRVAEAAKRAGITSLETLLRAIEEIRKRVEEAQREGNDISEACRQAAEEFRKKAEELKRRGDV	binds
DHF44 (designed binder, vector pCDB24 (SUMO fusion); forms a homo-polymer) AVLALMVVNLLVQLAIELLSRAMLKGSAEDLEKALRTAEEAAREAKKVLEQAEKDGDPEVALLAVELVVVVATILLMIAKISGSEEALERALRVAEEAARLAKRVLELAEKQGDPEVALRAVELVVRVAELLLRIAKESGSEEALERALRVAEEAARLAKRVLELAEKQGDPEVARRAVELVKRVAELLERIARESGSEEAKERAERVREEARELQERVKELREREG	binds
DHF38 (designed binder, vector pCDB24 (SUMO fusion, removed with SUMO protease); forms a homo-polymer; cryoEM PDB 6E9Y) AEELLKRVEKLVKEAEELLRQAMKKGSEELLEVALVVAQMAAREAKKVLTMAEVEGDPEVALRAVELVVRVAELLLRIALVSGSEEALERALRVAEEAARLAKRVLELAESQGDPEVALRAVELVVRVAELLLLIAKVSGSEEALERALRVAEEAARLAKRVLELAEKQGDPAVAILAVMLVKRVAELLENIARESGSEEAKERAERVREEARELQERVKELKERAG	binds
DHF50 (designed binder, vector pCDB24 (SUMO fusion); forms a homo-polymer) AIVQLMTVIAMAVIANALLIRAIVNGSAEDLEKALRTAEEAAREAKKVLEQAEKDGDPEVALRAVELVVLVAVNLLLIAKESGSEEALERALRVAEEAARLAKRVLELAEKVGDPEVALRAVELVVRVAELLLRIAKESGSEEALERALRVAEEAARLAKRVLELAEKQGDPEVARRAVELVKRVAELLERIARESGSEEAKERAERVREEARELQERVKELREREG	binds
DHF49 (designed binder, vector pET28b; forms a homo-polymer) MGHHHHHHSSGSDEEEARELIERAAEAAKRAVEAAERTGDPNVVELAKELVRLAQEAAEEVKRDPSSSDVNEALKLIVEAIEAAVRALEAAERTGDPVVRLLARELVRLAVEAAEEVQRNPSSSDVNEALKLIVEAIEAAVRALEAAERTGDPEVRELARELVRLAVEAAEEVQRNPSSEQVNEALKKIVKAIQEAVESLREAEESGDPEKRDKARLRVLEAVIRAMVVQIN	binds
DHF31 (designed binder, vector pCDB24 (SUMO fusion); forms a homo-polymer) AAIETLNVMTLVMLALLLLIQAISKGSAEDLEKALRTAEEAAREAKKVLEQAEKEGDPDQALKAVELVVVVAQLLLQIAIASGSREALERALRVAEEAARLAKRVLELAEKQGDPEVALRAVELVVRVAELLLRIAKESGSEEALERALRVAEEAARLAKRVLELAEKQGDPEVARRAVELVKRVAELLERIARESGSEEAKERAERVREEARELQERVKELREREG	binds
DHF47 (designed binder, vector pCDB24 (SUMO fusion); forms a homo-polymer) INLTIAILVAILVATMVELVAIRAQLEGNPELAASAMELRRAVEEAIEEAEKQGNPLLVLWVAVAAKVAAEVIKVAIQAEKEGNRDLFRAALELVRAVIEAIEEAVKQGNPELVEWVARAAKVAAEVIKVAIQAEKEGNRDLFRAALELVRAVIEAIEEAVKQGNPELVERVARLAKKAAELIKRAIRAEKEGNRDERREALERVREVIERIEELVRQGN	binds
DHF78 (designed binder, vector pET28b; forms a homo-polymer) MGELVLLVAKLALAVAVQASALGDEEVFRKAAEKALELAKRLVELAKLIGDPELVLEAAKVALEVAELAAKNGDKEVFKKAAESALEVAKRLVEVASKEGDPELVLEAAKVALRVAELAAKNGDKEVFKKAAESALEVAKRLVEVASKEGDPELVEEAAKVAEEVRKLAKKQGDEEVYEKARETAREVKEELKRVREEKGLE	binds
DHF34 (designed binder, vector pCDB24 (SUMO fusion); forms a homo-polymer) AEVILLVAVLLLAKAVEAVLMGNRVAFRLAAELALRVAKLLVIMAKVEGDPELVLEAAKVALVVASLAALNGDKEVFKKAAESALEVAKRLVEVASKEGDPELVLEAAKVALKVAELAAKNGDKEVFKKAAESALEVAKRLVEVASKEGDPELVEEAAKVAEEVRKLAKKQGDEEVYEKARETAREVKEELKRVREEKG	binds
DHF58 (designed binder, vector pET28b; forms a homo-polymer; cryoEM PDB 6E9T (4-repeat structure); also called DHF58 four-repeat protomer) MELLRVVMLVKEAEELLTLAVIKGSEDDLQKALRTAVEAAREAVKVLLQAVKRGDPEVALRAVELVVRVAELLLRIAKESGSELALKMALLVAEEAARLAKIVLELAEKQGDPEVALRAVELVVRVAELLLRIAKESGSEEALERALRVAEEAARLAKRVLELAEKQGDPEVARRAVELVKRVAELLERIARESGSEEAKERAERVREEARELQERVKELREREGLE	binds
DHF4 (designed binder, vector pCDB24 (SUMO fusion); forms a homo-polymer) ADEELARILIEMAKTAAEAAQMAAEVTGDPRVRLLAVRLKMLALMAALEVILDPSSSDVNEALKLIVEAIEAAVKALLAAVRTGDPEVRELARELVRLAVEAAEEVQRNPSSSDVNEALKLIVEAIEAAVRALEAAERTGDPEVRELARELVRLAVEAAEEVQRNPSSEEVNEALKKIVKAIQEAVESLREAEESGDPEKREKARERVREAVERAEEVQRN	binds
